Results from the DeepSol protein solubility set.

Assay: soluble on expression in E. coli; label from the status in PepcDB or PDB records

| Sequence | soluble on expression in E. coli |
| --- | --- |
| MDIKVIREKLTLTTSITSESVAEYEHDVDECCRLLEHKLELEMEKKLQLSNRIDVVQSQVTELWDRVDKARRRESDISCRVTAWAQHLSEMMNEVKLKKAKMGTTMEISATLSAEIQESLDLLAEKRVIVQRMREEIDYRRHLHKQQLKDLKLDCDREEEKCEYWNDKSAEIEKVVEMLKEQRKSLGERVEEEKRMEQEQKKMLEELEMLLKKTGKKRQILDENANLVASFSSLTEESS | not soluble |
| MDILKKIEKYREEEQRLKWEGTFADYLEIIKENPMVAQSAHSRVFNMIKDSGIEEIDGRKKYSFFDRELFGLEESLERLVEEYFHPAAKRLDVRKRILLLMGPVSGGKSTLVTMLKKGLEAYTLTDNGAVYAIKGCPMHEDPLHLIPHHLRDDFYREYGIRIEGSLSPLNVMRLEEEYGGRIEDVKVERIFFSEDKRTGIGTFSPSDPKSQDIADLTGSIDFSTIAEYGSESDPRAYRFDGELNKANRGMMEFQEMLKCDEKFLWHLLSLTQEGNFKAGRFALISADELIVAHTNETEYRSFISNKKNEALHSRIIVMPVPYNLKVSEEERIYEKMIAESDVADVHIAPHTLKVAAMFSILTRLKEPKRSD | not soluble |
| MDILVREVDVSEYVSIVVNRDSFNTIEYFICAPFSGQRLRGTARPGQTVVFRQQNLTNVVEKLGKNSFRCIVKADELPKSFQKSQEFVVARGRFQQFLKVAEGSRLSKLEPMSDTEMASNAIKDVREMAEQDLIGSRKTPFYEMFTRFAQQKVTSSDQEDTIENLHTRNNYEDIFDVLKSNLNKNEQLNDIDGRNNQKSDKMTEVDQTDKMHLTELEVKQKV | not soluble |
| MDIMLVLWNGTPPMTRPEIEKVINTKKKLASTTILSLLTRLESKNFVEVTKQGKLNLYTPLVSQSDYQAHESQSVLEKLYGNSLKKFVTSLYQGKKISSEEIHELSDFLKELEDGEE | not soluble |
| MDISTNKANYKPAVSQAFDGQETQDGTNILILGSDQRVTQGSTDARTDTIMVVNVGNHAKKIKMVSFMRDTLINIPGYSYNDNSYDLKLNSAFNLGEQEDHHGAEYVRRALKHNFDIDIKYYVMVDFETFAEAIDTLFPNGVKIDAKFATVGGVAVDSVEVPDDLRMKNGVVPNQTIEVGEQRMDGRTLLNYARFRKDDEGDFGRTVRQQQVMSAVMSQIKDPTKLFTGSAAIGKIYALTSTNVSFPFVVKNGVSVLGSGKNGVEHVTIPENGDWVDEYDMYGGQALYIDFDKYQKTLAKLGLRLEHHHHHH | soluble |
| MDKFRVQGRTRLSGEVTISGAKNAALPILFAALLAEEPVELQNVPKLKDIDTTIKLLSQLGTKIERNNGSVFVDASAVNEFCAPYDLVKTMRASIWALGPLVARFGQGQVSLPGGCAIGARPVDLHITGLEQLGAEIKLEEGYVKASVNGRLKGAHIVMDKVSVGATVTIMSAATLAEGTTVIENAAREPEIVDTANFLNTLGAKISGAGTDRITIEGVTRLGGGVYRVLPDRIETGTFLVAAAISGGKVVCRQTRPDTLDAVLAKLREAGADIEVGDDWISLDMQGKRPKAITFRTAPHPGFPTDMQAQFSLLNLVAEGTGVITETIFENRFMHVPELIRMGAHAEIESNTVICYGVEQLSGAQVMATDLRASASLVLAGCIAEGVTIVDRIYHIDRGYERIEDKLRALGAKIERVKGE | not soluble |
| MDKKELFDALDDFSQQLLVTLADVEAIKKNLKSLVEENTALRLENSKLRERLGEVEADAPVKAKHVRESVRRIYRDGFHVCNDFYGQRREQDEECMFCDELLYRE | not soluble |
| MDKKELVEKIALNTLVFETLGQPEKEREFTIQDLRRWGFDLILGKKNGVRTFFASQAGREVGDKWEEGGATYEIEEILLELPENKKLFAHIETSEGVAYIVAELREGKENLEILRTPAPTLLMAFFKKHRLHELANNLKSVGVITEFYKQRGRESLPLPYKKLPLVARDFLERAKKVEKMAGFGRVALAYFGKTREKDNRFRVSWLLPTIALFDIDISEKANTALEEFK | soluble |
| MDKKILVVDDEKPIADILEFNLRKEGYEVHCAHDGNEAVEMVEELQPDLILLDIMLPNKDGVEVCREVRKKYDMPIIMLTAKDSEIDKVIGLEIGADDYVTKPFSTRELLARVKANLRRQ | soluble |
| MDKKTIYFICTGNSCRSQMAEGWGKEILGEGWNVYSAGIETHGVNPKAIEAMKEVDIDISNQTSDLIDNDILKQSDLVVTLCSDADNNCPILPPNVKKEHWGFDDPAGKEWSEFQRVRDEIKLAIEKFKLR | soluble |
| MDKLKFGLVSLGCDKNRVDSEIILGSMNRDYEIVNDPREADVILVNTCGFIESAKQESINTILEMNKYKEKYNCKMLIATGCLTQRYGKELKELVPEIDAILGVNDYKSLDDAIEDFFNLGKKDIYCNYSDQSINEGKRIITTGEYSSYVRISEGCNNSCSYCIIPKIRGKYRSRQFENIIDEVRELSENGTKEVILIAQDTTRYGVDLYGRKRLHELLKEMSLIQGIEWIRIMYCYPEEITEELIEEIASNEKVCNYIDMPIQHISDNILKNMFRKTRKSEILDKVEKIRKKVPNIAIRTSLIVGFPGETEGDFNELCDFVKDANINNLGVFRYSREEGTKAALMPMQIADTVKEKREEDIMLIQQQVSKNLNAKKIGKVYKVIVEGFNGDYWYGRNFEMAPEIDGKVFFKSQSEIKVGSFINIKITENLEYDLIGVVYNEFSKLEHHHHHH | soluble |
| MDKNINISVKVWRQKGPKEKGHFETYQLQNISQSASFLEMMDILNEQLIKEHKAPVVFDHDCREGICGMCSLYINGHPHGPDDSITTCQLHMRRFDDGDTITIEPWRSAGFPVIRDLMVDRSAYDKIIQSGGFVSVNTGGIPDANAIPISKKNADEAMDAAACIGCGACAAACKNGSAMLFVSAKVSQLALLPQGRIEAARRAKAMVAKMDELGFGNCTNTRACEMECPKNVSISHIARLNREYIVAKNRD | not soluble |
| MDKPILKDSMKLFEALGTIKSRSMFGGFGLFADETMFALVVNNQLHIRADQQTSSDFETQGLKPYVYKKRGFPVVTKYYAISSELWESSDRLIEVAKKSLENAKLEKEQQASTKPNRLKDLPNLRLATERMLKKAGIDSVAQLEEEGALSAYKAIRDTHSTTVSLELLWALEGAINGTHWSVVPQSRREELMNGLS | soluble |
| MDLDKLVHQPTRLELFAYLYRHGESSFGDLTDELDLTEGNLSSHLQRMEDADAVEVRKEFVDKRPHTTAVLTEDGEAMFEDHVQTLQGLIDGLELEHHHHHH | not soluble |
| MDLEISEKIKAYRQVMSAKSPSDAALTWNLFDLPNNMELARFFSTLSKEEMAKFEQCVFVDGQDPKTYIKMHKMVESTATIALSEEIENKRTILVAEPNRGGVSGHEGEMASTSSGFRDGYHPCMDHTSYAEGLFTESEKAWELERLLKLQKEIAEAKSKIVKQKKPSIKSA | not soluble |
| MDLIAPEDVVVTLSHAGYAKRQPVSAYRAQRRGGRGRSAASTKEEDFIDQLWLVNTHDTLLTFTSSGKVFWLPVHQLPEAGSNARGRPIINWIPLESGERVQAVLPVREYADNRYVFMATRNGTVKKTPLSEFAFRLARGKIAINLDEGDALVGVALTDGDRDVLLFASNGKTVRFGESTVRSMGRTATGVRGIRLAKGEEVVSLIVSERAGGVEDEVEDESAEEVVETTDGAEPAVIDVADNGDVAYILTATENGYGKRTPLAEYPRKGRGTQGVIGIQTTERNGKLVRAVLLGSTDEVMLISDGGTLVRTRGSEISRVGRNTQGVTLIRLSKGEKLQAVERLDASLEEPEDVVDEAVAITSDAPPAEG | soluble |
| MDLVKDVKRELSFSELKGKRVSIDGYNALYQFLAAIRQPDGTPLMDSQGRVTSHLSGLFYRTINILEEGVIPIYVFDGKPPEQKSEELERRRKAKEEAERKLERAKSEGKIEELRKYSQAILRLSNIMVEESKKLLRAMGIPIVQAPSEGEAEAAYLNKLGLSWAAASQDYDAILFGAKRLVRNLTITGKRKLPNKDVYVEIKPELIETEILLKKLGITREQLIDIGILIGTDYNPDGIRGIGPERALKIIKKYGKIEKAMEYGEISKKDINFNIDEIRGLFLNPQVVKPEEALDLNEPNGEDIINILVYEHNFSEERVKNGIERLTKAIKEAKGASRQTGLDRWF | soluble |
| MDMKHTLLEALGIEIVENTAERCVAVMPVDHRTVQPFGYLHGGASVALAETAARPGAQNLIDHTTQACVGLEINANHLKSVKEGTVKAIAEPVHIGRTTIVYHIHIYDEQERLICISRCTLAVIKKLEHHHHHH | soluble |
| MDMYSMKISEGVERIDGVTANSYLLTLDGKNILIDTGTAGGGKKIIDYFNKNGTKPDYVIVTHHHADHVGGLKEISERFNPEIYVPDLEMKIIRGEEDPPKPRSFFGRMITGMLKFEPVKDVKPVSKASIPGIEEMATPGHTIGSTSYIVEDLHILFSGDAAVESGGELKINKSFSYEINSAERSLEIIKGMKGYLVLPGHGDKVQLLEHHHHHH | soluble |
| MDNPCPTCGQELEWTGQYHCSACTVDYCKVGFCPECGSELEKLQACGAANYFCNQCNELKSKSKIRFVFQPLNGNSQLEHHHHHH | soluble |
| MDNPEPARIVRLMEHRADIAIVGGGLNGPALALALAQSGQSVVLVDALPDPLRTDAEFDGRAYALALASQRLLAAVGVWDHVAEAAQPMLEIKVSDGHAGAGPSPFFLHFDHAEIEEGPMGYMVEDRYLRRALLAAMEDAPRITRLNGAAVTAQQTDGTGVVLTLADGSHLRAGLVVGCDGRKSGTATRAGIKRTGWDYGQTALVCAIAHERPHHGIAHQFFMPPGPLAILPLPGNRSSIVWSERTEAAARINALPEAEYLEILRPRFGDFLGEIRLEGARFTYPLNLTVANAFVAERLALVGDAAHGMHPIAGQGLNAGLRDVGALAEVLILAARRGEDIGAAPVLERYQQWRRFDTATLALATDAFNRLFSNDNPLLRLGRDVGMGVIGAFPGLRRGFVREATGLTGDLPKLMQGRAILEHHHHHH | not soluble |
| MDPARECEGKGACELKSNKRFADKIMPHLLNLYGSSAKANDFDMYAPNASFEDPLTHAQGVKQIKSAFYSLPKVFGESKIVEYHIQESETSPGKKEILIDNKQHYKIMGRNIDMISLIKLYVEDGKIVRHEDWWDKKPLRNRDTVSFPLVGRVMEMGRRGLMLATHAMMGFGKDPDSQ | soluble |
| MDQNIPCQFFSFENTALAVRHRKGHCFPGLVWLSGYQSDMLGSKAMLVDNFAQKNDLSCLRFDYSGHGESEGDFFQGTISRWVKESLAIFETYCEGPQILIGSSMGGWIALKLAMMLAQKNKRLAGMVLVAPAPDFTQTLVEPKLGLEEWKILEEKGYIERPAVGDEEPMPFTKGLIEDGRDNCVMKGCLDIGCPIHILQGMEDDKIPYQHTLTLMNHLPLHDVTLTLVRDADHRFSRPQDLECLETVLSILIDRINAG | not soluble |
| MDREQVVALQHQRFAAKKYDPNRRISQKDWEALVEVGRLAPSSIGLEPWKMLLLKNERMKEDLKPMAWGALFGLEGASHFVIYLARKGVTYDSDYVKKVMHEVKKRDYDTNSRFAQIIKNFQENDMKLNSERSLFDWASKQTYIQMANMMMAAAMLGIDSCPIEGYDQEKVEAYLEEKGYLNTAEFGVSVMACFGYRNQEITPKTRWKTEVIYEVIE | soluble |
| MDRKFNSDEQWYISPLLNLATVKEEMLEVRELGEVIIDRTMDDFDSKTEKEHEMEMWKNSLSYIQGVTEEESLEAIEEVSNLDMFLEGSSDVQTRRFEDMKGDRKFLERSPLVSHKHVISREKTMKTSRQRKSAYVTSLKYDKYMLNAGANTSLFHPQCSILEKCEDDIVLIVDALMPYNRELLSSELRSSRLLKPMTKFLVRGDTLLSDLRQKFVCQSDTIVPLENGLELDPPNLDNATAVRFPSSFIFVHDTFYVDMPPNAIDISHPIRNFMLHREIYDPVEACSMEGVRIIDLKLRLGQPYIFQHSGNCEHLLVFHDLRLLHESDPWGIDKYPFTLYEKGNEKKCDICKKGHVEFVVERHELLPNTYTHFCRTCFQEFNYVHGVKTHSFIAWPYTELQTGEQRGWPFGDFEQEDD | not soluble |
